The values below come from patent publication US20060257938A1, “Method of screening for drugs that block ligand binding to a lipid binding protein” (priority 2005, published 2006).

Values joined by “and” are separate entries in the source; they are usually repeats but may differ in a detail not shown here. Equal values may be shown once.

Format in all cases: binding
Assay [1] can be described thus: Probe fluorescence ratio response to linolenic acid relative to ADIFAB2. To be noted: response relative to ADIFAB2. The source says: (§1) In an alternate preferred embodiment, the protein is rI-FABP that has Ala substituted for Leu at position 72 (rI-FABP-L72A) with the resulting probe named ADIFAB2. […] Other probes useful in embodiments of the invention are shown in Tables 1-6 and are also described in U.S. application Ser. No. 11/085,792, filed Mar. 21, 2005 which is incorporated herein by reference. The indicated substitutions are with reference to the ADIFAB protein of SEQ ID NO: 2.
(§2) ADIFAB2 also has an altered spectral response, making it especially useful for measurements of FFAu in blood samples (Apple et al, Clinical Proteomics, (2004) 1:41-44, U.S. patent application Ser. No. 10/670,958). The wavelengths at the maximum intensities emitted by these fluorescently-labeled I-FABP's in the absence of FFA is about 420 to 480 nm. The emission wavelengths at the maximum intensities emitted by these fluorescently-labeled I-FABP's with FFA bound are between about 495 to 580 nm. Experiments typically involve measuring the fluorescence response within both emission maxima or at wavelengths for which the effect of interfering molecules such as hemoglobin can be eliminated as described in U.S. application Ser. No. 10/670958 and PCT/US2004/030521 and the calculation of the ratio ‘R’ of the two fluorescence intensities. The baseline value for this ratio, measured in the absence of analyte, is designated R0.
(§3) The intensity ratio (“R” value) is determined as follows. The ratio is calculated using the following formula: R=Fλ1/Fλ2 wherein, Fλ1 is the measured fluorescence intensities (intensity of sample with probe present minus intensity of sample without probe present) at wavelength 1 and Fλ2 is the measured fluorescence intensities (intensity of sample with probe present minus intensity of sample without probe present) at wavelength 2. Then, for a given probe, ΔR, the difference in R value between the measurement in the presence of the test compound (agent) and in the absence of the test compound (agent), is calculated as follows: ΔR=R+agent−R0 In some embodiments, the ΔR value may then be compared to some reference, for example, an agent with a known affinity for a given probe, by ΔR/ΔRreference. Measurements of fluorescence intensities are obtained using standard techniques.

Assay [2] in a line: Probe fluorescence ratio response to linoleic acid relative to ADIFAB2. To be noted: response relative to ADIFAB2.
Text: as §1, §2, §3

A short description of assay [3]: Probe fluorescence ratio response to arachidonic acid relative to ADIFAB2. To be noted: arachidonic acid; response relative to ADIFAB2.
Text: as §1, §2, §3

A short description of assay [4]: Probe fluorescence ratio response to palmitic acid relative to ADIFAB2. The conditions noted are these: response relative to ADIFAB2.
Text: as §1, §2, §3

Assay [5] is described as follows: Probe fluorescence ratio response to oleic acid relative to ADIFAB2. To be noted: response relative to ADIFAB2.
Text: as §1, §2, §3

B1: 102D, 72A (protein, listed as Rattus norvegicus)
chain: AFDGTWKVDRNENYEKFMEKMGINVVKRKLGAHDNLKLTITQEGNKFTVKESSNFRNIDVVFELGVDFAYSAADGTELTGTWTMEGNKLVGKFKRVDNGKEDIAVREISGNELIQTYTYEGVEAKRIFKKE
modifications: PEPTIDE (1)...(131) wild-type rat intestinal fatty acid binding protein
On to B1, for which the “DR/DR LNA” value in assay [1] came to 0.61. Moreover, in assay [2], the “DR/DR LA” value is 0.63. In assay [3], the “DR/DR AA” value amounted to 0.52. In addition, in assay [4], the “DR/DR PA” value amounted to 0.28. In addition, in assay [5], the “DR/DR OA” value was found to be 0.59.

B2: 117Q, 72A (protein, listed as Rattus norvegicus)
chain: AFDGTWKVDRNENYEKFMEKMGINVVKRKLGAHDNLKLTITQEGNKFTVKESSNFRNIDVVFELGVDFAYSAADGTELTGTWTMEGNKLVGKFKRVDNGKELIAVREISGNELIQTQTYEGVEAKRIFKKE
modifications: PEPTIDE (1)...(131) wild-type rat intestinal fatty acid binding protein
As for B2, in assay [1], the “DR/DR LNA” value was 1.24 and 1.236. Moreover, the “DR/DR LA” value in assay [2] was 1.37 and 1.374. Moreover, the “DR/DR AA” value in assay [3] was 1.21 and 1.214. In addition, in assay [4], the “DR/DR PA” value is 0.63 and 0.631. The “DR/DR OA” value in assay [5] was 1.13 and 1.134.

B3: 119G, 72A (protein, listed as Rattus norvegicus)
chain: AFDGTWKVDRNENYEKFMEKMGINVVKRKLGAHDNLKLTITQEGNKFTVKESSNFRNIDVVFELGVDFAYSAADGTELTGTWTMEGNKLVGKFKRVDNGKELIAVREISGNELIQTYTGEGVEAKRIFKKE
modifications: PEPTIDE (1)...(131) wild-type rat intestinal fatty acid binding protein
As for B3, in assay [1], the “DR/DR LNA” value is 0.81. Moreover, the “DR/DR LA” value in assay [2] came out at 0.77. In addition, the “DR/DR AA” value in assay [3] is 0.83. Besides, in assay [4], the “DR/DR PA” value was 0.46. Also, the “DR/DR OA” value in assay [5] is given as 0.78.

B4: 102E, 72A (protein, listed as Rattus norvegicus)
chain: AFDGTWKVDRNENYEKFMEKMGINVVKRKLGAHDNLKLTITQEGNKFTVKESSNFRNIDVVFELGVDFAYSAADGTELTGTWTMEGNKLVGKFKRVDNGKEEIAVREISGNELIQTYTYEGVEAKRIFKKE
modifications: PEPTIDE (1)...(131) wild-type rat intestinal fatty acid binding protein
B4: in assay [1], the “DR/DR LNA” value is recorded as 0.89. For the same molecule, in assay [2], the “DR/DR LA” value was 0.65. Besides, the “DR/DR AA” value in assay [3] came out at 0.56. In addition, the “DR/DR PA” value in assay [4] was 0.30. Also, the “DR/DR OA” value in assay [5] is listed as 0.60.

B5: 119A, 72A (protein, listed as Rattus norvegicus)
chain: AFDGTWKVDRNENYEKFMEKMGINVVKRKLGAHDNLKLTITQEGNKFTVKESSNFRNIDVVFELGVDFAYSAADGTELTGTWTMEGNKLVGKFKRVDNGKELIAVREISGNELIQTYTAEGVEAKRIFKKE
modifications: PEPTIDE (1)...(131) wild-type rat intestinal fatty acid binding protein
For B5, in assay [1], the “DR/DR LNA” value is 0.65 and 0.520. Besides, in assay [2], the “DR/DR LA” value is 0.61 and 0.450. Also, the “DR/DR AA” value in assay [3] is 0.70 and 0.540. In addition, in assay [4], the “DR/DR PA” value was 0.30 and 0.200. Besides, the “DR/DR OA” value in assay [5] is 0.63 and 0.490.

B6: 119F, 72A (protein, listed as Rattus norvegicus)
chain: AFDGTWKVDRNENYEKFMEKMGINVVKRKLGAHDNLKLTITQEGNKFTVKESSNFRNIDVVFELGVDFAYSAADGTELTGTWTMEGNKLVGKFKRVDNGKELIAVREISGNELIQTYTFEGVEAKRIFKKE
modifications: PEPTIDE (1)...(131) wild-type rat intestinal fatty acid binding protein
For the molecule B6, the “DR/DR LNA” value in assay [1] was found to be 0.93. Besides, the “DR/DR LA” value in assay [2] amounted to 0.90. In assay [3], the “DR/DR AA” value is on record as 0.93. Besides, in assay [4], the “DR/DR PA” value worked out at 0.69. Further, the “DR/DR OA” value in assay [5] is on record as 0.94.

B7: 117V, 72A (protein, listed as Rattus norvegicus)
chain: AFDGTWKVDRNENYEKFMEKMGINVVKRKLGAHDNLKLTITQEGNKFTVKESSNFRNIDVVFELGVDFAYSAADGTELTGTWTMEGNKLVGKFKRVDNGKELIAVREISGNELIQTVTYEGVEAKRIFKKE
modifications: PEPTIDE (1)...(131) wild-type rat intestinal fatty acid binding protein
In the case of B7, the “DR/DR LNA” value in assay [1] was 0.81 and 0.767. Besides, the “DR/DR LA” value in assay [2] was 0.94 and 0.924. In assay [3], the “DR/DR AA” value was 0.82 and 0.805. The “DR/DR PA” value in assay [4] was 0.49 and 0.498. Besides, the “DR/DR OA” value in assay [5] was 0.81 and 0.774.

B8: 117Y, 72A (protein, listed as Rattus norvegicus)
chain: AFDGTWKVDRNENYEKFMEKMGINVVKRKLGAHDNLKLTITQEGNKFTVKESSNFRNIDVVFELGVDFAYSAADGTELTGTWTMEGNKLVGKFKRVDNGKELIAVREISGNELIQTYTYEGVEAKRIFKKE
modifications: PEPTIDE (1)...(131) wild-type rat intestinal fatty acid binding protein
For the molecule B8, the “DR/DR LNA” value in assay [1] was 1.40. For the same molecule, the “DR/DR LA” value in assay [2] turned out to be 1.44. For the same molecule, the “DR/DR AA” value in assay [3] is recorded as 1.35. The “DR/DR PA” value in assay [4] was found to be 1.14. Also, the “DR/DR OA” value in assay [5] is listed as 1.36.

B9: 119C, 72A (protein, listed as Rattus norvegicus)
chain: AFDGTWKVDRNENYEKFMEKMGINVVKRKLGAHDNLKLTITQEGNKFTVKESSNFRNIDVVFELGVDFAYSAADGTELTGTWTMEGNKLVGKFKRVDNGKELIAVREISGNELIQTYTCEGVEAKRIFKKE
modifications: PEPTIDE (1)...(131) wild-type rat intestinal fatty acid binding protein
Consider B9, for which the “DR/DR LNA” value in assay [1] is 1.00 and 1.001. For the same molecule, the “DR/DR LA” value in assay [2] is 1.02 and 1.022. Also, in assay [3], the “DR/DR AA” value was 1.06 and 1.063. The “DR/DR PA” value in assay [4] is 0.35 and 0.355. For the same molecule, the “DR/DR OA” value in assay [5] was 0.97 and 0.971.

B10: 117T, 72A (protein, listed as Rattus norvegicus)
chain: AFDGTWKVDRNENYEKFMEKMGINVVKRKLGAHDNLKLTITQEGNKFTVKESSNFRNIDVVFELGVDFAYSAADGTELTGTWTMEGNKLVGKFKRVDNGKELIAVREISGNELIQTTTYEGVEAKRIFKKE
modifications: PEPTIDE (1)...(131) wild-type rat intestinal fatty acid binding protein
Turning to B10, the “DR/DR LNA” value in assay [1] was 0.77 and 0.775. The “DR/DR LA” value in assay [2] was 0.92 and 0.917. For the same molecule, the “DR/DR AA” value in assay [3] is 0.79 and 0.791. For the same molecule, in assay [4], the “DR/DR PA” value was 0.57 and 0.567. Further, the “DR/DR OA” value in assay [5] is 0.81 and 0.813.

B11: 117W, 72A (protein, listed as Rattus norvegicus)
chain: AFDGTWKVDRNENYEKFMEKMGINVVKRKLGAHDNLKLTITQEGNKFTVKESSNFRNIDVVFELGVDFAYSAADGTELTGTWTMEGNKLVGKFKRVDNGKELIAVREISGNELIQTWTYEGVEAKRIFKKE
modifications: PEPTIDE (1)...(131) wild-type rat intestinal fatty acid binding protein
B11: in assay [1], the “DR/DR LNA” value is 0.46 and 0.461. The “DR/DR LA” value in assay [2] was 0.45 and 0.446. The “DR/DR AA” value in assay [3] was 0.55 and 0.551. The “DR/DR PA” value in assay [4] is 0.34 and 0.339. The “DR/DR OA” value in assay [5] is 0.39 and 0.388.

B12: 117S, 72A (protein, listed as Rattus norvegicus)
chain: AFDGTWKVDRNENYEKFMEKMGINVVKRKLGAHDNLKLTITQEGNKFTVKESSNFRNIDVVFELGVDFAYSAADGTELTGTWTMEGNKLVGKFKRVDNGKELIAVREISGNELIQTSTYEGVEAKRIFKKE
modifications: PEPTIDE (1)...(131) wild-type rat intestinal fatty acid binding protein
As to B12, the “DR/DR LNA” value in assay [1] is 1.07 and 1.133. The “DR/DR LA” value in assay [2] was 1.42 and 1.533. In assay [3], the “DR/DR AA” value was 1.35 and 1.467. Also, the “DR/DR PA” value in assay [4] is 0.55 and 0.593. The “DR/DR OA” value in assay [5] was 1.19 and 1.258.

B13: 117R, 72A (protein, listed as Rattus norvegicus)
chain: AFDGTWKVDRNENYEKFMEKMGINVVKRKLGAHDNLKLTITQEGNKFTVKESSNFRNIDVVFELGVDFAYSAADGTELTGTWTMEGNKLVGKFKRVDNGKELIAVREISGNELIQTRTYEGVEAKRIFKKE
modifications: PEPTIDE (1)...(131) wild-type rat intestinal fatty acid binding protein
Take B13: the “DR/DR LNA” value in assay [1] came out at 0.70. Further, in assay [2], the “DR/DR LA” value was found to be 0.70. Besides, the “DR/DR AA” value in assay [3] came out at 0.64. For the same molecule, the “DR/DR PA” value in assay [4] is 0.31. Further, the “DR/DR OA” value in assay [5] stood at 0.61.
